According to patent US20190276551A1 (UNIVERSITY MEDICAL CENTER HAMBURG EPPENDORF, published 2019):
Residue numbers refer to the chain shown, from its start.

B1: JK12 (VHH)
VHH: QVQLQESGGGLVQPGGSLRLSCVASERIFSRNTMGWYRQAPGKQRELVARIASLGITNYADSVKGRFTISSDNAKNTVYLQMNNLKPEDTAVYYCNYWHYAAGRDYWGQGTQVTVSS
notes: His6-Myc-tagged monovalent VHH; also called I-9.1a; family 4
B2: Jk42 (VHH)
VHH: B1 VHH with Q3K, R50Y, A52T, T57A, P87S, Y94N
notes: His6-Myc-tagged monovalent VHH; also called I-9.1d; family 4
B3: Jk14 (VHH)
VHH: B1 VHH with Q1E, Q5V, P14A
notes: His6-Myc-tagged monovalent VHH; also called I-9.1b; family 4
B4: MU1065 (VHH)
VHH: DVQLQESGGGLVQAGDSLRLSCAASGPHFNNYAIGWFRQAPGKEREFVAGISWSSGSLLYSDSVKGRFTISRDNDKNTAYLQMNSLKPEDTALYYCAAQYQERYYSDFSLKEKGMEYWGKGTLVTVSS
notes: His6-Myc-tagged monovalent VHH; also called I-19.1b; family 19
B5: Jk20 (VHH)
VHH: QVQLQESGGGLVQAGGSLRLSCAISGRTFIADMGWFRQAPGKEREFQAGITWFGGSTYYADSVKGRFTISRDNTKNTLYLQMNSLKPEDTAIYYCAAGLKRIGDQREADYWGQGTQVTVSS
notes: His6-Myc-tagged monovalent VHH; also called I-13.1a; family 8
B6: Jk27 (VHH)
VHH: B5 VHH with Q1E, Q5V, S120A
notes: His6-Myc-tagged monovalent VHH; also called s-13.1a; family 8
B7: Jk26 (VHH)
VHH: B5 VHH with L18V, A31N
notes: His6-Myc-tagged monovalent VHH; also called I-13.1b; family 8
B8: MU413 (VHH)
VHH: DVQLQASGGGLVQTGDSLTVSCAASGLSFTRYTMGWYREVPGKERREFVAAVKPAGDSAYYGASVKGRFTASRDNAKNTVTLQMNSLKPEDTAIYYCAAGFPVLTALHIADPDYWGQGTQVTVSP
notes: His6-Myc-tagged monovalent VHH; also called I-15.2b; family 13
B9: Jk46 (VHH)
VHH: QVQLQESGGGLVQAGGSLRLSCAASGRTFSSVAMGWFRQAPGKEREFVATINWSGGRTTYADSVKGRFTISRDSAKNTVYLQMNSLKPEDTAVYYCAADRFSVVAVEYDYWGQGTQVTVSS
notes: His6-Myc-tagged monovalent VHH; also called family 7
B10: MU727 (VHH)
VHH: DVQLQASGGGLVQAGGSLRLSCAGSGRTFSSYAMGWFRQAPGKEREFVASISWSGSRTNYGVPVKGRFTISRDNAKNTVYLQMSSLKPEDTAVYYCAADRFAVAIGTHDLDYWGQGTQVTVSS
notes: His6-Myc-tagged monovalent VHH; also called s-14.1d; family 9
B11: WF129 (VHH)
VHH: DVQLQASGGGLVQAGGSLRLSCEFSGRTFSGFAMGWFRQFPGKEREFVAAINWSGSSVDYSDSVKGRFTISRDNVKSTMYLVMNSLKPEDTAVYYCAEARSAELGSSRKIQGYDQWGRGTQVTVSS
notes: His6-Myc-tagged monovalent VHH; also called I-17.1b; family 18
B12: WF141 (VHH)
VHH: B11 VHH with Q121R
notes: His6-Myc-tagged monovalent VHH; also called I-17.1c; family 18
B13: Jk34 (VHH)
VHH: QVQLQESGGRLVQPGGSLRLSCAASGRTFSNYAMAWFRQGPGKEREFVAAISAADSTLYADFVKGRFTISRDNAKNTVYLQMNSLKPEDTAVYYCAARWWIAVRAPAEYNYWGQGTQVTVSS
notes: His6-Myc-tagged monovalent VHH; also called I-14.2c; family 11
B14: Jk35 (VHH)
VHH: B13 VHH with Q3K
notes: His6-Myc-tagged monovalent VHH; also called I-14.2d; family 11
B15: MU1103 (VHH)
VHH: DVQLQASGGGLVQAGGSLRLSCAASEFTFDDYVIGWFRQAPGKEREGVSSISSDGSTYYADSVKGRFTISSDNAKNTVYLHMNSLKPEDTAVYYCAADVTLNPFTGWTTRSGPMYRYEYDYWGQGTQVTVSS
notes: His6-Myc-tagged monovalent VHH; also called s-24.1c; family 22
B16: Jk25 (VHH)
VHH: QVKLQESGGGLVQPGGSLRLSCVASGSISSIITMGWYRQAPGKQREFVARVIIGGSTGYADSVKGRFTISRDNTKNTVYLEMNSLKPEDTAVYYCNAGNPGTSYHYWGQGTQVTVSS
notes: His6-Myc-tagged monovalent VHH; also called I-9.3a; family 6
B17: Jk24 (VHH)
VHH: QVQLQESGGGLVQPGGSLRLSCAASGIILRIYDMGWYRQAPGKQRELVAEITSGGSTNYADSVKGRFTISRDNAENTVSLQMNSLKPGDTAVYYCNAHHTFAGAYWGQGTQVTVSS
notes: His6-Myc-tagged monovalent VHH; also called I-8.2c; family 2
B18: Jk30 (VHH)
VHH: B17 VHH with E50A, S56R, P87S, H98D, A104V
notes: His6-Myc-tagged monovalent VHH; also called I-8.2b; family 2
B19: Jk32 (VHH)
VHH: B17 VHH with I27S, I28T, I31L, P41D, D61N, G88E, H98E, A102M
notes: His6-Myc-tagged monovalent VHH; also called I-8.2e; family 2
B20: Jk31 (VHH)
VHH: B17 VHH with I31L, A40T, P87S, H98D, A104V
notes: His6-Myc-tagged monovalent VHH; also called I-8.2d; family 2
B21: MU1053 (VHH)
VHH: DVQLQESGGGLVQAGGSLRLSCTGSGRTFRNYPMAWFRQAPGKEREFVAGITWVGASTLYADFAKGRFTISRDNAKNTVYLQMNSLKPEDTAVYSCAAGRGIVAGRIPAEYADWGQGTQVTVSS
notes: also called L-15.3; I-15.3a
B22: MU737 (VHH)
VHH: B10 VHH with T28S, E44A, F47I, S50T, S52T, W53R, S56G, R57S, G61A, I105S
notes: His6-Myc-tagged monovalent VHH; also called s-14.1c; family 9
B23: MU725 (VHH)
VHH: B15 VHH with A6E, E26G, S53N, D54N, G55N, S70A, H81Q, T108N
notes: His6-Myc-tagged monovalent VHH; also called family 22
B24: MU274 (VHH)
VHH: DVQLQESGGGLVQAGGSLRLSCAASGVSFSRYTMGWYREVPGKERREFVAAVRPSGDSTYYGNSVKGRFSISRDDDKNIVYLQMNSLKPEDTAVYYCAAGFPVLVALSIADPDYWGQGTQVTVST
notes: also called L-15.2a; I-15.2a
B25: MU397 (VHH)
VHH: DVQLQASGGGLVQAGGSLRLSCAPSGGTFDAYDMGWYREAPGKKRQFVAAVRSGGGTTRYADSVKGRFTISRDDAKDTVFLQMNSLKPEDTALYYCAADRWGLFSLSIATPTHWGQGTQVTVSS
notes: His6-Myc-tagged monovalent VHH; also called L-15.1a; I-15.1a
B26: MU415 (VHH)
VHH: VQLQASGGGLVQAGGSLRLSCTVSGFTSDDYTVGWFRQAPGLKREGLSCLSRRDGRFYHSNSVKGRFTMSSDDNKNTVYLQLDSLKPDDTAVYYCAATTSVVVLLAPNWYEYWGQGTQVTVSS
notes: also called L+15; I+15b
B27: MU370 (VHH)
VHH: DVQLQASGGGSVQAGGSLTLSCRYSGGFVFRVSSMGWYRQAPGNQRELIATITVGGKTNYKDSVQGRFIISRNDTTVTLQMNRLQPEDTAVYYCNLASTAVGADTWGQGTRVTVSS
notes: also called I-9.2a
B28: MU1068 (VHH)
VHH: DVQLQASGGGSVQEGESLKLSCVGSGRTFSDWAMGWYRQAPGKDREFVAAVSGAGRGGKPSYANSVKGRFTVSRDNAKNTVYLQMDNLKPEDTAVYYCAADRLVLVALSIADPGFWGQGTRVTVSS
notes: also called L-15.1b; I-15.1b
B29: MU523 (VHH)
VHH: DVQLQESGGGLVQAGSSLRISCAVSGVRLDNYAMGWFRQAPGKERESVAGISWSSGTLLYSDSVKGRFAISRDNAKNTVYLQMNSLKPEDTAVYYCAAQYQDRYYDEFTWKEKDMDYWGKGTLVTVSS
notes: His6-Myc-tagged monovalent VHH; also called L-19.1a; I-19.1a
B30: WF139 (VHH)
VHH: SGGGLVQAGGSQRLSCAASGHTFSSYSMAWFRQAPGKEREFVAANIMSGTNTYYADSVRGRFTMSRDIAKNTVYLQMNSLKEEDTALYYCAAADRFRGWATWRDDPDQYDYWDQGTQVTVSS
notes: His6-Myc-tagged monovalent VHH; also called s-19b; s-19.1b
B31: WF114 (VHH)
VHH: VQLQESGGGLVQAGGSLRLSCAASGFTFDDYVIGWFRQAPGKECEGVSSISNNNSTYYADSVKGRFTIASDNAKNTVYLQMNSLKPEDTAVYYCAADVTLNPFTGWNTRSGPMYRYEYDYWGQGTQVTVSS
notes: His6-Myc-tagged monovalent VHH; also called s+/-24b; s-24.1b
B32: MU1105 (VHH)
VHH: B15 VHH with E26G, D54S, T57I, H81Q, Y94F, T108D
notes: His6-Myc-tagged monovalent VHH; also called I-24a; I-24.1a
B33: WF140 (VHH)
VHH: DVQLQASGGGSVQAGGSLRLSCAASGLSFSDYAMGWFRQEPGKERRFVASIRSSGGTTYAESVKGRFTISRDNAKNTMYLQMNNLKPEDTAVYYCAADRLVITKLSIADPGYWGQGTQVTVSS
notes: also called s-15a; s-15.1a
B34: WF32 (VHH)
VHH: QVQLQESGGGLVQAGGSLRLSCAASGIILRIYDMGWYRQAPGKQRELVAAITSGGSTNYADSVKGRFTISRDNAKSMVYLQMNSLKPEDTAVYYCNAWHVFRGNYWGQGTQVTVSS
notes: His6-Myc-tagged monovalent VHH; also called I-8.2f; family 2

Each binder was assayed against T1, human CD38 on cells (human, UniProt P28907 1-300) (assay: binding assays of Example 4).
T1 construct: also called native CD38; CD38 on LP-1 myeloma cells, CD38-transfected NIH-3T3 cells, blood leukocytes, CD38-transfected DC27.10 cells

Row | binding result | Binder
1 | binds | B1
2 | binds | B2
3 | binds | B3
4 | binds | B4
5 | binds | B5
6 | binds | B6
7 | binds | B7
8 | binds | B8
9 | binds | B9
10 | binds | B10
11 | binds | B11
12 | binds | B12
13 | binds | B13
14 | binds | B14
15 | binds | B15
16 | binds | B16
17 | binds | B17
18 | binds | B18
19 | binds | B19
20 | binds | B20

These binders were tested against T1, human CD38 on cells (assay: flow cytometry on human blood, bound VHH detected with FITC anti-c-myc 9E10, MFI of CD3-negative lymphocytes).

Row | EC50 (read off the curve) [nM] | binding result | Binder
21 | ~0.1 | – | B21
22 | – | binds | B22
23 | – | binds | B23

The binders below were run against T2, soluble, non-glycosylated, recombinant human CD38 (human, UniProt P28907 43-300, Alexa 647 conjugate) (assay: micro-scale thermophoresis, n = 2).
T2 construct: also called recombinant human non-glycosylated extracellular domain of CD38

Row | Kd [nM] | Binder
24 | 3 | B24
25 | 1 | B25
26 | 23 | B26
27 | 225 | B27
28 | 1.38 | B28
29 | 3 | B29

What follows are binders tested against T3, human CD38 protein immobilised on AR2G biosensor (human, UniProt P28907 43-300, limits assumed) (assay: Octet BLI, immobilised CD38).
T3 construct: Construct used on the Octet is not described; also called immobilised human CD38

Row | koff [s⁻¹] | Binder
30 | < 0.00022 | B30
31 | < 0.00014 | B31
32 | < 0.0003 | B32
33 | 0.00054 | B33
34 | 0.00026 | B34
